{
  "source": "paper PMC5583966",
  "about": "“Sustained-release study on Exenatide loaded into mesoporous silica nanoparticles: in vitro characterization and in vivo evaluation” (DARU Journal of Pharmaceutical Sciences, 2017)",
  "key": {"[1]": {"test": "Pharmacokinetics study after s.c. injection in SD rats", "assay_type": "in vivo", "procedure": "Pharmacokinetic studies of EXT-Sol and EXT-SBA-15 were conducted in healthy male SD rats. Sixteen rats were randomly divided into two groups (n = 8) and fasted overnight with free access to water before administration. SD rats were received s.c. administration of EXT-Sol and EXT-SBA-15 at a single EXT dose of 50 μg/kg, respectively. The blood samples (0.5 mL) of EXT-Sol treatment group were collected from the rat’s orbit and at specific time 0, 0.25, 0.5, 1, 1.5, 2, 3, 4, 6, 8 h after injection. The blood samples (0.5 mL) of EXT-SBA-15 treatment group (0.5 mL) were collected at 0, 0.5, 1, 1.5, 2, 3, 5, 8, 12, 24, 36, 48, 72, 120 h. The collected blood samples were centrifuged at 503×g for 10 min to obtain the plasma, which were stored at −80 °C for further analysis. The plasma concentrations of EXT were measured by Exendin-4 ELISA kit according to the instructions supplied by the manufacturer. The relevant pharmacokinetic parameters were analyzed by PKSolver 2.0 [25]."}, "[2]": {"tested_on": "STZ-induced type 2 diabetic ICR mice (blood glucose)", "test": "In vivo pharmacodynamics study: blood glucose of STZ-induced type 2 diabetic mice", "settings": "s.c., EXT 3 μg/kg/d twice daily, days 0-25, measured before administration, n = 6", "procedure": "Type 2 diabetes model was induced by STZ with multiple injection method into ICR mice. Each mouse was injected intraperitoneally with 30 mg/kg⋅d STZ in 0.1 mol/L citric acid buffer (pH 5.0). One week after the injection, mice were fasted for 12 h (with free access to water) before their blood glucose was measured by glucometer (Accu-Chek Performa, Germany). Diabetic mice were considered by fasting blood glucose above 11.1 mmol/L. Six healthy normal ICR mice were used as the blank control group (A). Twenty-four mice that had developed type 2 diabetes were randomly divided into four experimental groups and received s.c. administration of saline (B), EXT-Sol (C), EXT-SBA-15 (D) and SBA-15 (E), respectively. Group A and B received saline twice daily via s.c. administration. Group C received EXT-Sol twice daily with a dose of EXT (3 μg/kg/d). Group D and E were administrated a single injection of EXT-SBA-15 (600 μg/kg) and SBA-15 via s.c. administration, respectively. The blood sample (about 0.2 ml) was collected from the tail-vein on days 0, 1, 5, 10, 15, 20, 25 for all groups, and blood glucose levels were determined measured simultaneously with a glucometer before administration."}, "[3]": {"settings": "single EXT dose 50 μg/kg, plasma, Exendin-4 ELISA, Mean ± SD, n = 8"}, "[4]": {"settings": "single EXT dose 50 μg/kg, plasma, Exendin-4 ELISA, two-compartment model, Mean ± SD, n = 8"}},
  "data": [
    {"substance": "EXT-Sol: Exenatide (EXT) solution, injected s.c. as comparator", "values": [
      {"measurement": "time at which plasma concentration had decreased to baseline", "setting": "[1]; EXT dose 50 μg/kg", "result": 8, "unit": "h"},
      {"measurement": "AUC0→t", "setting": "[1]; [3]", "result": "1.71 ± 0.07", "unit": "ng⋅ml^−1⋅h"},
      {"measurement": "AUC0→∞", "setting": "[1]; [3]", "result": "1.71 ± 0.07", "unit": "ng⋅ml^−1⋅h"},
      {"measurement": "MRT mean residence time", "setting": "[1]; [3]", "result": "68.4 ± 4.2", "unit": "min"},
      {"measurement": "c max peak concentration", "setting": "[1]; [3]", "result": "1.16 ± 0.09", "unit": "ng⋅ml^−1"},
      {"measurement": "t 1/2(α) half-life of distribution", "setting": "[1]; [4]", "result": "13.2 ± 1.8", "unit": "min"},
      {"measurement": "t 1/2(β) half-life of elimination", "setting": "[1]; [4]", "result": "36 ± 4.8", "unit": "min"},
      {"measurement": "long-term glucose lowering effect, up to 25 days", "setting": "[2]", "result": "not observed"}
    ]}
  ]
}
